Publication PMC3367090

Target: IpaD^Δ192-267 (IpaD distal domain deletion mutant) (S. flexneri) (UniProt P18013)

Substance: IpaD^Δ192-267 (IpaD distal domain deletion mutant) (from UniProt P18013 15-332) (natural protein)
- stoichiometry N: 5
